Source: patent US20210140973A1

Assays:
[1] = target: human IgG4 purified from human serum (human); assay: SPR (Biacore), IgG4 immobilized
[2] = target: human IgG4 purified from human serum (human); assay: SPR (Biacore), IgG4 immobilized on chip by amino coupling, antibody as analyte
[3] = target: human IgG4 purified from human serum (human); assay: latex agglutination inhibition, IgG4-sensitized latex, antibody in R1; free human IgG4 in sample 0.0 mg/dL
[4] = target: human IgG4 purified from human serum (human); assay: latex agglutination inhibition, IgG4-sensitized latex, antibody in R1; free human IgG4 in sample 125 mg/dL
[5] = target: human IgG4 purified from human serum (human); assay: latex agglutination inhibition, IgG4-sensitized latex, antibody in R1; free human IgG4 in sample 250 mg/dL
[6] = target: human IgG4 purified from human serum (human); assay: latex agglutination inhibition, IgG4-sensitized latex, antibody in R1; free human IgG4 in sample 500 mg/dL
[7] = target: human IgG4 purified from human serum (human); assay: latex agglutination inhibition, IgG4-sensitized latex, antibody in R1; free human IgG4 in sample 1000 mg/dL
[8] = target: human IgG4 purified from human serum (human); assay: latex agglutination inhibition, IgG4-sensitized latex, antibody in R1; free human IgG4 in sample 31.3 mg/dL

Chain of human IgG4 purified from human serum (human) (constant, as listed by the source limits assumed): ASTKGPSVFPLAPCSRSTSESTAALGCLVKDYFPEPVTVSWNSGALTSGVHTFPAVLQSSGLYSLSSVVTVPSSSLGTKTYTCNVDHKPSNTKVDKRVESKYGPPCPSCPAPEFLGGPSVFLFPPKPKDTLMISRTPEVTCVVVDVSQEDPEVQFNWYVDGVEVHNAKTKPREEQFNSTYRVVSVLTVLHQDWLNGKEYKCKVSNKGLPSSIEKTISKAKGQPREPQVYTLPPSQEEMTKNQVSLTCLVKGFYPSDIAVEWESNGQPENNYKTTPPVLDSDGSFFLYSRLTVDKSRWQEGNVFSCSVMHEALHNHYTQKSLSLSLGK

Substance: commercially available antibody HP6025 (Millipore Corporation)
- ratio of binding rate constant ka to those of the MaI4-08 and MaI4-09-produced antibodies [1]: < 0.01 fold
- Kd [2]: 0.408 µM
- koff [2]: 0.000681 s⁻¹
- kon [2]: 1670 M⁻¹ s⁻¹
- Absorbance change amount in 800 nm [3]: 0.003
- Absorbance change amount in 800 nm [4]: 0.0033
- Absorbance change amount in 800 nm [5]: 0.0034
- Absorbance change amount in 800 nm [6]: 0.0031
- Absorbance change amount in 800 nm [7]: 0.003
- Absorbance change amount in 800 nm [8]: 0.0036
